Experimental data: patent US12269859B2, “Synthetic immune receptors and methods of use thereof” (Angeles Therapeutics, Inc., priority 2016, dated 2025)

B1: 010417-E08 (protein)
chain: MALPVTALLLPLALLLHAARPLEGKPIPNPLLGLDSTGSGEDLKNVFPPEVAVFEPSKAEIAHTQKATLVCLATGFYPDHVELSWWVNGKEVHSGVCTDPQPLKEQPALNDSRYCLSSRLRVSATFWQNPRNHFRCQVQFYGLSENDEWTQDRAKPVTQIVSAEAWGRADCGITSASYHQGVLSATILYEILLGKATLYAVLVSALVLMAMVKRKDSRGRAKRSGSGATNFSLLKQAGDVEENPGPTSTMALPVTALLLPLALLLHAARPDEIVLTQSPATLSLSPGERATLSCSASSSVSYMHWYQQKPGQAPRLLIYDTSKLASGIPARFSGSGSGTDFTLTISSLEPEDVAVYYCFQGSVYPFTFGQGTKLEIKRGGGGSGGGGSGGGGSQVQLQESGPGLVKPSQTLSLTCTVSGGSISTSGMGVGWIRQHPGKGLEWIGHIWWDDDKRYNPALKSRVTISVDTSKNQFSLKLSSVTAADTAVYYCARMELWSYYFDYWGQGTLVTVSSTREAAAKQIVLTQSPAIMSASPGEKVTISCSASSSVSYMYWYQQKPGSSPKPWIYRTSNLASGVPARFSGSGSGTSYSLTISNMEAEDAAAYYCQQYHSYPTTFGGGTKLEVKGGGGSGGGGSGGGGSEVQLVESGGGLVQPKGSLKLSCAASGFSFNTYAMNWVRQAPGKGLEWIAHIRSKSNNFATYYADSVKDRFSISRDASENILFLQMNNLKTEDTAMYYCVRQGGDFPMDYWGQGTSVTVSSTREQKLISEEDGSGIQNPDPAVYQLRDSKSSDKSVCLFTDFDSQTNVSQSKDSDVYITDKCVLDMRSMDFKSNSAVAWSNKSDFACANAFNNSIIPEDTFFPSSDVPCDVKLVEKSFETDTNLNFQNLSVIGFRILLLKVAGFNLLMTLRLWSSRAKRSGSGVKQTLNFDLLKLAGDVESNPGPSRGHMTEYKPTVRLATRDDVPRAVRTLAAAFADYPATRHTVDPDRHIERVTELQELFLTRVGLDIGKVWVADDGAAVAVWTTPESVEAGAVFAEIGPRMAELSGSRLAAQQQMEGLLAPHRPKEPAWFLATVGVSPDHQGKGLGSAVVLPGVEAAERAGVPAFLETSAPRNLPFYERLGFTVTADVEVPEGPRTWCMTRKPGA
B2: 030217-A05 (protein)
chain: MALPVTALLLPLALLLHAARPDEIVLTQSPATLSLSPGERATLSCSASSSVSYMHWYQQKPGQAPRLLIYDTSKLASGIPARFSGSGSGTDFTLTISSLEPEDVAVYYCFQGSVYPFTFGQGTKLEIKRGGGGSGGGGSGGGGSQVQLQESGPGLVKPSQTLSLTCTVSGGSISTSGMGVGWIRQHPGKGLEWIGHIWWDDDKRYNPALKSRVTISVDTSKNQFSLKLSSVTAADTAVYYCARMELWSYYFDYWGQGTLVTVSSLEGKPIPNPLLGLDSTGSGEDLKNVFPPEVAVFEPSKAEIAHTQKATLVCLATGFYPDHVELSWWVNGKEVHSGVCTDPQPLKEQPALNDSRYCLSSRLRVSATFWQNPRNHFRCQVQFYGLSENDEWTQDRAKPVTQIVSAEAWGRADCGITSASYHQGVLSATILYEILLGKATLYAVLVSALVLMAMVKRKDSRGRAKRSGSGATNFSLLKQAGDVEENPGPTSTMALPVTALLLPLALLLHAARPDIQMTQSPSSLSASVGDRVTITCKASQDVGIAVAWYQQKPGKVPKLLIYWASTRHTGVPDRFSGSGSGTDFTLTISSLQPEDVATYYCQQYSSYPYTFGQGTKVEIKGGGGSGGGGSGGGGSEVQLVESGGGLVQPGGSLRLSCAASGFDFSRYWMSWVRQAPGKGLEWIGEINPDSSTINYAPSLKDKFIISRDNAKNSLYLQMNSLRAEDTAVYYCARPDGNYWYFDVWGQGTLVTVSSTREQKLISEEDGSGIQNPDPAVYQLRDSKSSDKSVCLFTDFDSQTNVSQSKDSDVYITDKCVLDMRSMDFKSNSAVAWSNKSDFACANAFNNSIIPEDTFFPSSDVPCDVKLVEKSFETDTNLNFQNLSVIGFRILLLKVAGFNLLMTLRLWSSRAKRSGSGVKQTLNFDLLKLAGDVESNPGPSRGHMTEYKPTVRLATRDDVPRAVRTLAAAFADYPATRHTVDPDRHIERVTELQELFLTRVGLDIGKVWVADDGAAVAVWTTPESVEAGAVFAEIGPRMAELSGSRLAAQQQMEGLLAPHRPKEPAWFLATVGVSPDHQGKGLGSAVVLPGVEAAERAGVPAFLETSAPRNLPFYERLGFTVTADVEVPEGPRTWCMTRKPGA
B3: 010417-H05 (protein)
chain: MALPVTALLLPLALLLHAARPLEGKPIPNPLLGLDSTGSGEDLKNVFPPEVAVFEPSKAEIAHTQKATLVCLATGFYPDHVELSWWVNGKEVHSGVCTDPQPLKEQPALNDSRYCLSSRLRVSATFWQNPRNHFRCQVQFYGLSENDEWTQDRAKPVTQIVSAEAWGRADCGITSASYHQGVLSATILYEILLGKATLYAVLVSALVLMAMVKRKDSRGRAKRSGSGATNFSLLKQAGDVEENPGPTSMALPVTALLLPLALLLHAARPEIVLTQSPDFQSVTPKEKVTITCRASESVDTFGISFMNWFQQKPDQSPKLLIHAASNQGSGVPSRFSGSGSGTDFTLTINSLEAEDAATYYCQQSKEVPFTFGGGTKVEIKGGGGSGGGGSGGGGSEVQLVESGGGLVQPGGSLRLSCAASGFTFSSSWMNWVRQAPGKGLEWVGRIYPGDGDTNYNGKFKGRFTISRDDSKNSLYLQMNSLKTEDTAVYYCARSGFITTVLDFDYWGQGTLVTVSSTREQKLISEEDGSGIQNPDPAVYQLRDSKSSDKSVCLFTDFDSQTNVSQSKDSDVYITDKCVLDMRSMDFKSNSAVAWSNKSDFACANAFNNSIIPEDTFFPSSDVPCDVKLVEKSFETDTNLNFQNLSVIGFRILLLKVAGFNLLMTLRLWSSRAKRSGSGVKQTLNFDLLKLAGDVESNPGPSRGHMTEYKPTVRLATRDDVPRAVRTLAAAFADYPATRHTVDPDRHIERVTELQELFLTRVGLDIGKVWVADDGAAVAVWTTPESVEAGAVFAEIGPRMAELSGSRLAAQQQMEGLLAPHRPKEPAWFLATVGVSPDHQGKGLGSAVVLPGVEAAERAGVPAFLETSAPRNLPFYERLGFTVTADVEVPEGPRTWCMTRKPGA
B4: 010417-L03 (protein)
chain: MALPVTALLLPLALLLHAARPLEQKLISEEDLGSGDRPDPAVYQLRDSKSSDKSVCLFTDFDSQTNVSQSKDSDVYITDKCVLDMRSMDFKSNSAVAWSNKSDFACANAFNNSIIPEDTFFPSPESSCDVKLVEKSFETDTNLNFQNLSVIGFRILLLKVAGFNLLMTLRLWSSSSRAKRSGSGVKQTLNFDLLKLAGDVESNPGPTSMALPVTALLLPLALLLHAARPEIVLTQSPDFQSVTPKEKVTITCRASESVDTFGISFMNWFQQKPDQSPKLLIHAASNQGSGVPSRFSGSGSGTDFTLTINSLEAEDAATYYCQQSKEVPFTFGGGTKVEIKGGGGSGGGGSGGGGSEVQLVESGGGLVQPGGSLRLSCAASGFTFSSSWMNWVRQAPGKGLEWVGRIYPGDGDTNYNGKFKGRFTISRDDSKNSLYLQMNSLKTEDTAVYYCARSGFITTVLDFDYWGQGTLVTVSSTRGKPIPNPLLGLDSTGSGEDLKNVFPPEVAVFEPSEAEISHTQKATLVCLATGFYPDHVELSWWVNGKEVHSGVCTDPQPLKEQPALNDSRYCLSSRLRVSATFWQNPRNHFRCQVQFYGLSENDEWTQDRAKPVTQIVSAEAWGRADCGFTSESYQQGVLSATILYEILLGKATLYAVLVSALVLMAMVKRKDSRGRAKRSGSGATNFSLLKQAGDVEENPGPSRGHMTEYKPTVRLATRDDVPRAVRTLAAAFADYPATRHTVDPDRHIERVTELQELFLTRVGLDIGKVWVADDGAAVAVWTTPESVEAGAVFAEIGPRMAELSGSRLAAQQQMEGLLAPHRPKEPAWFLATVGVSPDHQGKGLGSAVVLPGVEAAERAGVPAFLETSAPRNLPFYERLGFTVTADVEVPEGPRTWCMTRKPGA
B5: 011317-A06 (protein)
chain: B4 chain
B6: 010417-C03 (protein)
chain: MALPVTALLLPLALLLHAARPLEGKPIPNPLLGLDSTGSGEDLKNVFPPEVAVFEPSKAEIAHTQKATLVCLATGFYPDHVELSWWVNGKEVHSGVCTDPQPLKEQPALNDSRYCLSSRLRVSATFWQNPRNHFRCQVQFYGLSENDEWTQDRAKPVTQIVSAEAWGRADCGITSASYHQGVLSATILYEILLGKATLYAVLVSALVLMAMVKRKDSRGRAKRSGSGATNFSLLKQAGDVEENPGPTSTMALPVTALLLPLALLLHAARPDEIVLTQSPATLSLSPGERATLSCSASSSVSYMHWYQQKPGQAPRLLIYDTSKLASGIPARFSGSGSGTDFTLTISSLEPEDVAVYYCFQGSVYPFTFGQGTKLEIKRGGGGSGGGGSGGGGSQVQLQESGPGLVKPSQTLSLTCTVSGGSISTSGMGVGWIRQHPGKGLEWIGHIWWDDDKRYNPALKSRVTISVDTSKNQFSLKLSSVTAADTAVYYCARMELWSYYFDYWGQGTLVTVSSTREAAAKDIQMTQSPSSLSASVGDRVTITCKASQDVGIAVAWYQQKPGKVPKLLIYWASTRHTGVPDRFSGSGSGTDFTLTISSLQPEDVATYYCQQYSSYPYTFGQGTKVEIKGGGGSGGGGSGGGGSEVQLVESGGGLVQPGGSLRLSCAASGFDFSRYWMSWVRQAPGKGLEWIGEINPDSSTINYAPSLKDKFIISRDNAKNSLYLQMNSLRAEDTAVYYCARPDGNYWYFDVWGQGTLVTVSSTREQKLISEEDGSGIQNPDPAVYQLRDSKSSDKSVCLFTDFDSQTNVSQSKDSDVYITDKCVLDMRSMDFKSNSAVAWSNKSDFACANAFNNSIIPEDTFFPSSDVPCDVKLVEKSFETDTNLNFQNLSVIGFRILLLKVAGFNLLMTLRLWSSRAKRSGSGVKQTLNFDLLKLAGDVESNPGPSRGHMTEYKPTVRLATRDDVPRAVRTLAAAFADYPATRHTVDPDRHIERVTELQELFLTRVGLDIGKVWVADDGAAVAVWTTPESVEAGAVFAEIGPRMAELSGSRLAAQQQMEGLLAPHRPKEPAWFLATVGVSPDHQGKGLGSAVVLPGVEAAERAGVPAFLETSAPRNLPFYERLGFTVTADVEVPEGPRTWCMTRKPGA

Each molecule was assayed on target antigen-expressing cell line (assay: Jurkat NFAT-GFP assay, coculture with target cell lines expressing the respective target antigen (summary Table 10A)). Settings: SIR-expressing Jurkat-NFAT-GFP cells cocultured with HEL; relative % GFP positive cells.
Assay type: cell-based, human
Parameters: key: The signs +/−, +, 2+ etc. after the name of the cell lines indicate the relative degree of positivity on the Jurkat-NFAT-GFP assay as measured by the % GFP positive cells; +: relative degree of positivity on the Jurkat-NFAT-GFP assay as measured by the % GFP positive cells; 2+: relative degree of positivity on the Jurkat-NFAT-GFP assay as measured by the % GFP positive cells
Outline: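 Positivity is scored when SIR-expressing reporter Jurkat cells show more GFP-positive cells than parental controls after coculture with the antigen-bearing line. Effector-to-target ratio is about 1:2, coculture lasts roughly 4–18 hours, and GFP is quantified by FACS.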
B1 was tested, and the “NFAT-GFP ASSAY Positive Cell lines: HEL” value was “(+), HEL (+)”.

Same assay, conditions: SIR-expressing Jurkat-NFAT-GFP cells cocultured with L363; relative % GFP positive cells
With B2 the “NFAT-GFP ASSAY Positive Cell lines: L363” value was “(+/−), L363 (+/−),”.

Same assay, conditions: SIR-expressing Jurkat-NFAT-GFP cells cocultured with NALM6; relative % GFP positive cells
For B3, the “NFAT-GFP ASSAY Positive Cell lines: NALM6” value was “(+)”.
With B4 the “NFAT-GFP ASSAY Positive Cell lines: NALM6” value was “RAJI (+), NALM6 (+)”.
B5 was tested, and the “NFAT-GFP ASSAY Positive Cell lines: NALM6” value was “(2+)”.
B6 was tested, and the “NFAT-GFP ASSAY Positive Cell lines: NALM6” value was “(+/−)”.
B1 was tested, and the “NFAT-GFP ASSAY Positive Cell lines: NALM6” value was “(+), HEL (+)”.
For B2, the “NFAT-GFP ASSAY Positive Cell lines: NALM6” value was “(+/−), L363 (+/−),”.

Same assay, conditions: SIR-expressing Jurkat-NFAT-GFP cells cocultured with RAJI; relative % GFP positive cells
In the case of B3, the “NFAT-GFP ASSAY Positive Cell lines: RAJI” value is reported as “RAJI (2+), NALM6”.
With B4 the “NFAT-GFP ASSAY Positive Cell lines: RAJI” value was “RAJI (+), NALM6 (+)”.
For B5, the “NFAT-GFP ASSAY Positive Cell lines: RAJI” value was “RAJI (2+), NALM6”.
B6 was tested, and the “NFAT-GFP ASSAY Positive Cell lines: RAJI” value was “RAJI (+), NALM6”.
In the case of B1, the “NFAT-GFP ASSAY Positive Cell lines: RAJI” value is reported as “RAJI (+), NALM6”.
In the case of B2, the “NFAT-GFP ASSAY Positive Cell lines: RAJI” value is reported as “RAJI (+), NALM6”.

Same assay, conditions: SIR-expressing Jurkat-NFAT-GFP cells cocultured with U266; relative % GFP positive cells
B2 was tested, and the “NFAT-GFP ASSAY Positive Cell lines: U266” value was “U266 (+/−)”.
